Values quoted from earlier work in US20230398266A1, “THERAPEUTIC AGENT FOR USE IN LOCAL TREATMENT OF INFLAMMATION ASSOCIATED WITH ATHEROSCLEROSIS AND/OR A THROMBOTIC STATE” (priority 2020, published 2023).

Assays:
patients with COVID-19 = details: for side effects related to systemic administration: patients with COVID-19; for results in patients with COVID-19: systemic administration, preliminary studies
[1] = tested on: patients with previous myocardial infarction and elevated inflammatory indices; details: systemic administration; compared to placebo

Substance: anakinra
- side effects related to systemic administration (patients with COVID-19): severe side effects
- results in patients with COVID-19 (patients with COVID-19): encouraging results

Substance: tocilizumab
- side effects related to systemic administration (patients with COVID-19): severe side effects
- results in patients with COVID-19 (patients with COVID-19): encouraging results

Substance: canakinumab
- incidence of cardiovascular events (death from heart disease, myocardial infarction, cerebral stroke) [1]: lower incidence of cardiovascular events compared to placebo
- incidence of serious side effects such as fatal sepsis and thrombocythemia [1]: higher incidence of serious side effects
